Series [1] deals with the molecule itself. Put plainly: cross-linking; diamide-induced covalent (disulfide/selenenylsulfide) complex: TrxR1 or a TrxR1 mutant with a 2-fold concentration of hTrx1, or one protein alone, 10 mM diamide, 30 min at room temperature; non-reducing SDS-PAGE, Coomassie stain.
Series [2] concerns the molecule itself. In words: cross-linking; H2O2 as thiol oxidant in place of diamide; unpublished (Zhong's observation).

Numbering of substitutions follows the chain as printed.

B1: Cys73Ala mutant of hTrx1 (natural protein, human, UniProt P10599 1-105, looked up)
chain: MVKQIESKTAFQEALDAAGDKLVVVDFSATWCGPCKMIKPFFHSLSEKYSNVIFLEVDVDDCQDVASECEVKAMPTFQFFKKGQKVGEFSGANKEKLEATINELV
notes: Human cytosolic thioredoxin (hTrx1) with Cys73 replaced by Ala; also called hTrx1 mutant in which Cys73 was substituted by Ala
In general, stoichiometry N refers to the number of molecules, sites or subunits per partner or assembly. As for B1, the “stoichiometry N” value in series [1] came to 2.

B2: human cytosolic thioredoxin (hTrx1) (natural protein, UniProt P10599 1-105, looked up)
chain: B1 chain with A73C
notes: Human cytosolic thioredoxin (hTrx1); freshly DTT-treated, free thiol on surface Cys73; also called human cytosolic Trx; source: purified according to a previously described method (Zhai and Zhong, 2010); incubated with DTT and dialysed before use
Consider B2, for which the “stoichiometry N” value in series [2] was 2.

For the origin of these results see article PMC10957665, “The C-terminal selenenylsulfide of extracellular/non-reduced thioredoxin reductase endows this protein with selectivity to small-molecule electrophilic reagents under oxidative conditions” (Frontiers in Molecular Biosciences, 2024).
